From patent US20100279930A1 (published 2010)
Like-named read-outs stand apart in the source and are kept apart here. No end group written: not given here.

Experiments:
Assay in all cases: 125I-PP displacement
human Y4 receptor [1] = molecular target: T1, human Y4 receptor (human, UniProt P50391 1-375)
human Y4 receptor [2] = molecular target: T1, human Y4 receptor; remark: listed apart in the source
human Y4 receptor [3] = molecular target: T1, human Y4 receptor; remark: listed apart in the source
human Y4 receptor [4] = molecular target: T1, human Y4 receptor; remark: listed apart in the source
human Y4 receptor [5] = molecular target: T1, human Y4 receptor; remark: listed apart in the source

T1 sequence (P50391 whole entry): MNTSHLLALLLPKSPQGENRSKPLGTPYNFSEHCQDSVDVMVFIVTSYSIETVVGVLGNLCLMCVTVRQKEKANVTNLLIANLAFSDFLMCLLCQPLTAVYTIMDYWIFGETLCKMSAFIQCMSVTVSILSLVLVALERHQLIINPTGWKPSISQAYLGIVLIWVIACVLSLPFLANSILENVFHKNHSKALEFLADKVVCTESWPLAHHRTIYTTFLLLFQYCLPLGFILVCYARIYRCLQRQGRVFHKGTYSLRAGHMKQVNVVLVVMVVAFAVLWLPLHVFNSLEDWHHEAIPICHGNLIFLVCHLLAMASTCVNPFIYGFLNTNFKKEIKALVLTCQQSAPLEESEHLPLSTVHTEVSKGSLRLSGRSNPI

Row | Binder | IC50 (human Y4 receptor [1]) [nM] | also measured
1 | APLEPVYPGDNATPEELNRYYASLRRYINMLTRPRY [6460] | 0.2 | –
2 | PLEPHYPGDDATPQQMAHYYSELRRYINKLTRPRY [4457895] | – | IC50 (human Y4 receptor [2]): 0.145 nM
3 | APLEPSYPGDNATPEQLAKYAAELRRYINKLTRPRY [4058913] | – | IC50 (human Y4 receptor [3]): 0.0775 nM
4 | APLEPVYPGDNATEEEAVRLFIDLRRYINMLTRPRY [6621] | 16 | –
5 | PLEPSYPGDNATPEQLAKYAAELRRYINKLTRPRY [4058912] | – | IC50 (human Y4 receptor [3]): 0.0495 nM
6 | AAAPLEPVYPGDNATPEQMAQYAADLRRYINMLTRPRY [6655] | 0.28 | –
7 | AAPLEPVYPGDNATPEQMAKYAADLRRYINKLTRPRY [compound of SEQ ID NO:348 (Ala 0, Lys19, Lys 30, code 4056385)] | – | IC50 (human Y4 receptor [4]): 0.051 nM
8 | EAPLEPVYPGDNATPEQMAQYAADLRRYINMLTRPRY [6651] | 0.35 | –
9 | DAPLEPVYPGDNATPEQMAQYAADLRRYINMLTRPRY [6652] | 0.36 | –
10 | APLEPVYPGDNATPEQMAQYAADLRRYINILTRPRY (ends and bridges not checked) [compound of SEQ ID NO:259 (code 4055713)] | – | IC50 (human Y4 receptor [5]): 0.22 nM
11 | APLEPVYPGDNATPEQMAQYAADLRRYINFLTRPRY (ends and bridges not checked) [compound of SEQ ID NO:261 (code 4055715)] | – | IC50 (human Y4 receptor [5]): 0.13 nM
12 | APLEPVYPGDNATPEQLAQYAADLRRYINMLTRPRY [6429] | 0.55 | –
13 | APLEPVYPGDNATPEQMAQYAADLRRYINMLTAPRY [6450] | 8.8 | –
14 | APLEPEYPGDNATPEQMAQYAADLRRYINMLTRPRY (ends and bridges not checked) [compound of SEQ ID NO:276 (4055746)] | – | IC50 (human Y4 receptor [5]): 0.16 nM
15 | APLEPVYPGDNATPEQMAQYAAALRRYINMLTRPRY [compound of SEQ ID NO:277 (Ala 23, code 4055747)] | – | IC50 (human Y4 receptor [5]): 0.079 nM
16 | APLEPVYPGDNATPEQMAQYAADLRRYINVLTRPRY (ends and bridges not checked) [compound of SEQ ID NO:260 (code 4055714)] | – | IC50 (human Y4 receptor [5]): 0.09 nM

Row | Binder | IC50 (human Y4 receptor [1]) [nM] | also measured
17 | APLEPVYPGDNATPEQMAQYAADLRRYINMLTRPRF (ends and bridges not checked) [compound of SEQ ID NO:255 (code 4055708)] | – | IC50 (human Y4 receptor [5]): 0.16 nM
18 | KPLEPVYPGDNATPEQMAQYAADLRRYINMLTRPRY [6436] | 0.48 | –
19 | APLEPVYPGDNATPEQMAQYAADLRRYINKLTRPRY [compound of SEQ ID NO:281 (Lys 30, code 4055855)] | – | IC50 (human Y4 receptor [5]): 0.16 nM
20 | APLEPVYPGDNATPEQMAQYAKDLRRYINMLTRPRY [6465] | 0.85 | –
21 | KPLEPVYPGDNATPEQMAQYAADLRRYINMLTRPRY [6434] | 0.25 | –
22 | APLEPFYPGDNATPEQMAQYAADLRRYINMLTRPRY (ends and bridges not checked) [compound of SEQ ID NO:275 (code 4055745)] | – | IC50 (human Y4 receptor [5]): 0.17 nM
23 | GPLEPVYPGDNATPEQMAQYAADLRRYINMLTRPRY [6636] | 0.6 | –
24 | APLEPVYPGDNATPEQMAQYAADLKRYINMLTRPRY [6432] | 0.36 | –
25 | APLEPVYPGDNATPEKMAQYAADLRRYINMLTRPRY [6466] | 1.29 | –
26 | GAPLEPKYPGDNATPEEKAKYAAELRRYINKLTRPRY [4061236] | – | IC50 (human Y4 receptor [2]): 0.052 nM
27 | PAPLEPKYPGDNATPEEKAKYAAELRRYINKLTRPRY [4061235] | – | IC50 (human Y4 receptor [2]): 0.054 nM
28 | PAPLEPKYPGDNATPEQMAKYAAELRRYINKLTRPRY [4068672] | – | IC50 (human Y4 receptor [2]): 0.059 nM
29 | GAPLEPKYPGDNATPEEMAKYAAELRRYIDKLTRPRY [4061238] | – | IC50 (human Y4 receptor [2]): 0.138 nM
30 | GAPLEPKYPGDNATPEEMAKYAAELRRYINKLTRPRY [4058911] | – | IC50 (human Y4 receptor [3]): 0.077 nM
31 | PAPLEPKYPGDNATPEEMAKYAAELRRYIDKLTRPRY [4061237] | – | IC50 (human Y4 receptor [2]): 0.16 nM
32 | PAPLEPTYPGDNATPEEKAKYYSELRRYINKLTRPRY [4061239] | – | IC50 (human Y4 receptor [2]): 0.054 nM

Continued, in another order:

Row | IC50 (human Y4 receptor [1]) [nM] | Binder | also measured
33 | 1.2 | APLEPVYPGDNATEEELVKYFIDLRRYINMLTRPRY [6622] | –
34 | 0.21 | KAPLEPVYPGDNATPEQMAQYAADLRRYINMLTRPRY [compound of SEQ ID NO:52 (code 6647)] | –
35 | 0.3 | APLEPVYPGDNATHEQMAQYAADLRRYINMLTRPRY [6441] | –
36 | 4 | APLKPVYPGDNATPEQMAQYAADLRRYINMLTRPRY [6443] | –
37 | 0.15 | APLEPVYPGDNATPEQMAHYYASLRRYINMLTRPRY [6640] | –
38 | 0.42 | APLEPVYPGDNATPEQMAQYAADLRRYINMLTKPRY [6452] | –
39 | 0.16 | APLEPVYPGDNATPEQMARYAADLRRYINMLTRPRY [6606] | –
40 | 0.26 | APLEPVYPGDYATPEQMAQYAADLRRYINMLTRPRY [6440] | –
41 | 0.13 | APLEPVYPGDDATPQQMAQYAAELRRYINMLTRPRY [6457] | –
42 | 2.2 | APLEPVYPGDNATPEQMAQYAADLRRYINMLTRPAY [6449] | –
43 | 0.3 | APLEPVYPGDNATPEQMAQYAADLRRYINTLTRPRY [6437] | –
44 | 4.5 | APLKPVYPGDNATPEQMAQYAADLRRYINMLTRPRY [5920] | –
45 | 0.49 | APLEPVYPGDNATPEQMAQYAADLRHYINMLTRPRY [6438] | –
46 | 0.67 | APKEPVYPGDNATPEQMAQYAADLRRYINMLTRPRY [6463] | –
47 | 0.18 | APLEPVYPGDNATPEQMARYYASLRHYLNMLTRPRY [6462] | –
